What is called stoichiometry N is the number of molecules, sites or subunits per partner or assembly.

In the assay the target is Meiothermus taiwanensis LonA (Lon AAA+ protease), wild type, full length (Meiothermus taiwanensis). Kind of assay: cryo-EM structure.

“Meiothermus taiwanensis LonA (Lon AAA+ protease), wild type, full length (enzyme)” registered a stoichiometry N of 6.

These data come from doi:10.1101/2020.04.29.068361.
